Source: patent US20260294251A1, “Method for Medical Imaging” (Integro Theranositcs, LLC, priority 2023, published 2026)
pIC50: −log10 of the molar value. Like-named read-outs stand apart in the source and are kept apart here. Positions of bridges follow the written chain, without caps; N, C: chain ends. Non-standard residues stand in square brackets, D forms with d. Residues, ends and D or L forms follow the SMILES beside them. *: point of attachment. X1 = CC1(C)C(/C=C/C=C/C=C/C=C2/N(CCC(=O)*)c3ccc4ccccc4c3C2(C)C)=[N+](CCC(=O)[O-])c2ccc3ccccc3c21

Key:
male rats = test: In-vivo safety pharmacology (functional observation battery) in male rats; design: species or system rat
Description: (§1) Results from safety pharmacology studies further support the potential safety of L301 and LS301-IT.

cardiovascular function = test: Cardiovascular safety pharmacology after single IV administration; assay type: in vivo, rat; details: rats, single IV up to 20 mg/kg, up to 24 hours
Description: as §1

[1] = system: respiratory system functional parameters; test: Respiratory safety pharmacology after single IV administration; assay type: in vivo, Sprague-Dawley rats; details: single IV up to 20 mg/kg, up to 24 hours
Description: as §1

[2] = molecular target: human Ether-à-go-go related gene (hERG) (Homo sapiens, UniProt Q12809); test: human Ether-à-go-go related gene (hERG) assay; assay type: cell-based
Description: as §1

[3] = Single IV dose toxicity study in rats; assay type: in vivo, rat; details: rat, in vivo, iv; for selectivity ratio: starting dose 0.025 mg/kg, read-out: safety margin
Description: (§2) Therefore, the changes were considered non-adverse.

rats = test: Single IV dose toxicity study in rats; assay type: in vivo, rat
Description: as §2

[4] = system: Wolff-Bloom-Litton Chinese hamster ovary (CHO-WBL) cells; test: Chromosomal aberration test in CHO-WBL cells; assay type: cell-based; details: with and without an S9 activation system
Method: (§3) LS301 was negative for inducing structural/numerical chromosomal aberrations in Wolff-Bloom-Litton Chinese hamster ovary (CHO-WBL) cells with and without an S9 activation system. In a previous study, the potential for LS301 to cause genotoxicity was evaluated in a GLP bacterial mutagenicity (Ames) test in 4 strains of Salmonella typhimurium (TA100, TA1535, TA98, TA1537) and Escherichia coli (WP2uvrA) at doses up to 1000 μg/plate. The results were negative for LS301 mutagenicity.

[5] = system: Salmonella typhimurium (TA100, TA1535, TA98, TA1537) and Escherichia coli (WP2uvrA); test: GLP bacterial mutagenicity (Ames) test; assay type: cell-based; details: doses up to 1000 μg/plate; previous study
Method: as §3

[6] = Toxicokinetics at the NOAEL in the rat toxicity study; assay type: in vivo; details: plasma, iv, 20 mg/kg, Day 1, at NOAEL 20 mg/kg; for AUC(0-t) at 48 h: read-out: AUC0-48h; for C0: read-out: Co
Method: In this study, the NOAEL was considered 20 mg/kg. The corresponding AUC0-48h and Co of LS301 at the established NOAEL on Day 1 were 14200 h*ng/ml and 69900 ng/mL for males and 14900 h*ng/mL and 98800 ng/mL for females, respectively. Therefore, the NOAEL of 20 mg/kg is equivalent to a 3.226 mg/kg human dose.

tumors [7] = details: mouse, in vivo, iv
[8] = system: mouse breast cancer model; details: in vivo, iv
[9] = rat, in vivo, iv
Description: (§4) Appropriate bioanalytical methods were developed and validated to measure LS301 concentrations in rat plasma (LC-MS/MS) and various dosing formulations (HPLC-UV, UPLC) per good laboratory practice (GLP) regulations.

[10] = Pharmacokinetics in the rat after single IV delivery
Description: as §4

tumors [11] = test: Proof of concept imaging and biodistribution in mice after single IV delivery

Sequence of human Ether-à-go-go related gene (hERG) (Q12809 whole entry): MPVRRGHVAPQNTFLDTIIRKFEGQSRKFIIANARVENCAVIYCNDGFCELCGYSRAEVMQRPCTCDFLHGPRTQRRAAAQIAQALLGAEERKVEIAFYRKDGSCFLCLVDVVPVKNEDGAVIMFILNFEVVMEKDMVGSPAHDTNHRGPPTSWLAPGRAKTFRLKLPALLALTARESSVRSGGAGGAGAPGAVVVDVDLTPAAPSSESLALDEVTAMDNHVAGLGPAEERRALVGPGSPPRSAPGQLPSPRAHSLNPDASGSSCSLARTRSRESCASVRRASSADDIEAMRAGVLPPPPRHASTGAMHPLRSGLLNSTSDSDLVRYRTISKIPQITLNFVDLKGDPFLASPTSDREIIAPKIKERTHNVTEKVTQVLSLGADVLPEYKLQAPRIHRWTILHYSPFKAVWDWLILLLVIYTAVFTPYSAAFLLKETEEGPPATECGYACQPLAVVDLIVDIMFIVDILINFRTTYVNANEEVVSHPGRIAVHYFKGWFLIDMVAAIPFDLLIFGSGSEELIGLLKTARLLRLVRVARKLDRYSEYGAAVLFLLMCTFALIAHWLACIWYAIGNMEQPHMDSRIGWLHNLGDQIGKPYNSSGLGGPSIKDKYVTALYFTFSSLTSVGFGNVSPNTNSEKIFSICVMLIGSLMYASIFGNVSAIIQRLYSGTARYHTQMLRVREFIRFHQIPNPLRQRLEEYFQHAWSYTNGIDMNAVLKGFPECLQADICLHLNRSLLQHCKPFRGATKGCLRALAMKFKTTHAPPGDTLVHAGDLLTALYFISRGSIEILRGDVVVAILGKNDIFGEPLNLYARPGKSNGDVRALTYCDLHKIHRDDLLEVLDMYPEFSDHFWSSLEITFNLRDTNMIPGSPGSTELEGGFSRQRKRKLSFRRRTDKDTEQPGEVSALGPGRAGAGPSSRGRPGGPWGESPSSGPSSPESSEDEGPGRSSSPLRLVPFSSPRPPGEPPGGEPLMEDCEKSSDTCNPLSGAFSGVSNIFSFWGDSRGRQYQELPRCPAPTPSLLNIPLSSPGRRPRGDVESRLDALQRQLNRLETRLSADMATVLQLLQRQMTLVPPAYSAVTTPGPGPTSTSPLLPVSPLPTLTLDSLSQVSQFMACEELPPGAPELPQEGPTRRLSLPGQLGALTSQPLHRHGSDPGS

Q: Which results are given for CC1(C)C(/C=C/C=C/C=C/C=C2/N(CCC(=O)N[C@@H]3CSSC[C@@H](C(=O)N[C@@H](CCCCN)C(=O)O)NC(=O)[C@@H]4CCCN4C(=O)[C@H](CO)NC(=O)[C@H](CC(=O)O)NC(=O)[C@H](CCCNC(=N)N)NC(=O)CNC3=O)c3ccc4ccccc4c3C2(C)C)=[N+](CCC(=O)[O-])c2ccc3ccccc3c21 [LS301, cypate-cyclo(Cys-Gly-Arg-Asp-Ser-Pro-Cys)-Lys-OH] (X1-[dC]GRDSPCK-OH; disulfide 1-7)?
A: mortality (male rats; male rats, up to 20 mg/kg): No mortalities; functional observation battery (FOB) parameters (male rats; male rats, up to 20 mg/kg, motor activity, behavior, coordination, reflexes, body temperature): no effects; discoloration (green) (male rats; male rats, ≥10 mg/kg): transient LS301-related discoloration (green); effects on central nervous, cardiovascular, and respiratory functions (male rats; rats, doses up to 20 mg/kg): no significant effects; tolerability (male rats; rats, doses up to 20 mg/kg): Rats tolerated LS301 well; cardiovascular function (cardiovascular function): did not affect cardiovascular function; respiratory system functional parameters (tidal volume, respiratory rate, derived minute volume) [1]: did not affect respiratory system functional parameters; pIC50 [2]: < 5.00; NOAEL ([3]; correction factor of 0.88, read-out: corrected NOAEL): 17.6 mg/kg; NOAEL ([3]; single IV, read-out: NOAEL): 20 mg/kg; selectivity ratio ([3]; NOAEL 20 mg/kg): 129; selectivity ratio ([3]; corrected NOAEL 17.6 mg/kg): 114; mortalities or changes in body weight, food consumption, ophthalmology, hematology, coagulation, and urinalysis (rats; rats, up to 20 mg/kg LS301): no mortalities or test article-related changes; tolerability (rats; rats, up to 20 mg/kg LS301): tolerated LS301 and LS301-IT well; resolution of discoloration (rats; ≥10 mg/kg, rat toxicity study): resolved on Day 15; structural/numerical chromosomal aberrations [4]: negative; mutagenicity (Ames) [5]: negative; AUC(0-t) at 48 h ([6]; females): 14900 ng·h/mL; C0 ([6]; females): 98.8 µg/mL; AUC(0-t) at 48 h ([6]; males): 14200 ng·h/mL; C0 ([6]; males): 69.9 µg/mL; tumor uptake (biodistribution) (tumors [7]): high uptake in tumors; tissue distribution [8]: distributes and accumulates in tumor and non-tumor tissues, especially the liver and kidneys; tissue distribution [9]: widely distributed to tissues; volume of distribution [9]: greater than the total volume of body water in humans; half-life ([10]; rat): fewer than five hours; systemic exposure versus dose ([10]; rat): increased proportionally with dose; difference in systemic exposure between male and female ([10]; rats): No differences were seen; accumulation in other tissues (tumors [11]): accumulated in other tissues, especially the excretory organs of the liver and kidneys; binding and accumulation in tumors (tumors [11]): could bind and accumulate in tumors; tumor-to-background ratio (tumors [11]; four hours post-injection): clear tumor-to-background ratio
